# Measurements: US20240043504A1 (published 2024)
# Residue numbers refer to the chain shown, from its start.
# B1: mAb10982 (antibody, V domains shown)
# VH: EVQLVESGGGLVQPGGSLRLSCAASGLTVSSNYMSWVRQAPGKGLEWVSVIYSGGTTYYADSVKGRFTISRHNSKNTLSLQMNSLRAEDTAVYYCARGEGANYYGMDVWGQGTTVTVSS
# VL: QSVLTQPPSVSGAPGQRVTISCTGSSSNIGTGYDVHWYQQLPGTAPKLLIYGNSNRPSGVPDRFSGSKSGTSASLAITGLQAEDEADYYCQSYDSSLSGYVVFGGGTKLTVLG
# B2: mAb10986 (antibody, V domains shown)
# VH: EVQLVESGGGLVQPGGSLRLSCAASEFTVSSNYMSWVRQAPGKGLEWVSVIYSGGSTFYADSVKGRFTISRDNSKNTLYLQMNSLRAEDTAVYYCARALPYGDLHFDYWGQGTLVTVSS
# VL: B1 VL with S54T, G99D, Y100S, V101Y, G105T, L109V
# B3: mAb10985 (antibody, V domains shown)
# VH: EVQLVESGGGLVQPGRSLRLSCAASGFTFDDYAMHWVRQAPGKGLEWVSGISWNRGSIGYADSVKGRFTISRDNAKNSLYLQMSSLRAEDTALYYCAKDGERWDSVVVPSARNGMDVWGQGTTVTVSS
# VL: B1 VL with T31A, Y100S, V101Y, G105T, L109V
# B4: mAb10913 (antibody, V domains shown)
# VH: EVQLVESGGGLVQPGGSLRLSCAASGFTFRNYEMNWVRQAPGKGLEWVSYITSSGSTMYYADSVKGRFTISRDNAKNSLYLQMNSLRAEDTAVYYCARDGFYYYYAMDVWGQGTTVTVSS
# VL: QSVLTQPPSVSAAPGQKVTISCSGSSSNIGNNYVSWYQQLPGTAPKLLIYDNNKRPSGIPDRFSGSKSGTSATLGITGLQTGDEADYYCGTWDSSLSVGRVFGTGTKVTVLG
# B5: mAb10913 (antibody, V domains shown)
# VH: B4 VH
# VL: B4 VL
# B6: mAb10937 (antibody, V domains shown)
# VH: QITLKESGPTLVKPTQTLTLTCTFSGFSLSTNVVGVGWIRQPPGKALEWLALIYWNDDKRYSPSLKSRLTITKDTSKNQVVLTMTNMDPVDTATYYCAHGPTGDYFDYWGQGTLVTVSS
# VL: not shown
# B7: mAb11010 (antibody, V domains shown)
# VH: QVQLVESGGGVVQPGRSLRLSCAASGFTFSSYGMHWVRQAPGKGLEWVAVISYDGSYKYYADSVKGRFTISRDNSKNTLYLQMNSLRAEDTAVYYCAIDGGTVTTIFDYWGQGTLVTVSS
# VL: not shown
# B8: mAb10998 (antibody, V domains shown)
# VH: EVQLVESGGGLVHPGGSLRLSCAASGLTVSSNYMSWVRQAPGKGLEWVSVIYSGGSTYYADSVKGRFTISRHNSKNTLFLQMNSLRAEDTAVYYCARDRPITGTTLDVWGQGTTVTVSS
# VL: DIQMTQSPSSLFASVGDRVTITCRASQSISSYLNWYQQKPGKAPKLLIYAASSLQSGVPSRFSGSGSGTDFTLTISSLQPEDFAFYYCQQTYSTPPITFGQGTRLEIK
# B9: mAb10932 (antibody, V domains shown)
# VH: EVQLVESGGGLVQSGGSLRLSCAASGLTVSSNYMSWVRQAPGKGLEWVSVIYSGGSTFYSDSVKGRFTISRHNSKNTLYLQMNSLRAEDTAVYYCARARGDAFDIWGQGTMVTVSS
# VL: not shown
# B10: mAb11006 (antibody, V domains shown)
# VH: EVQLVESGGGLVQPGGSLRLSCAASGFIVSRNYMSWVRQAPGKGLEWVSVIYSGGSTFYADSVKGRFTISRHNSKNTLYLQMNSLKAEDTAVYYCARELRGYFDYWGQGTLVTVSS
# VL: DIQLTQSPSFLSASVGDRVTITCWASQGISSYLAWYQQKPGKAPKLLIYAASTLQSGVPSRFSGSGSGTEFTLTISSLQPEDFATYYCQLLNSYPYTFGQGTKLEIK
# B11: mAb11008 (antibody, V domains shown)
# VH: EVQLVESGGGLVQPGGSLRLSCAASGFTVSSNYMTWVRQAPGKGLEWVSVIYSGGSTFYADSVKGRFTISRHNSENTLYLQMNSLRAEDTAVYYCARDLAAAGTDYWGQGALVTVSS
# VL: B10 VL with E81D, L90H, P95L
# B12: mAb10915 (antibody, V domains shown)
# VH: B10 VH with I28T, R31S, S35N, K86R, A87P, E98D, R100G
# VL: not shown
# B13: mAb10989 (antibody, V domains shown)
# VH: QVQLVQSGAEVKKPGASVKVSCKASGYIFTGYYMHWVRQAPGQGLEWMGWINPNSGGANYAQKFQGRVTLTRDTSITTVYMELSRLRFDDTAVYYCARGSRYDWNQNNWFDPWGQGTLVTVSS
# VL: QSALTQPASVSGSPGQSITISCTGTSSDVGTYNYVSWYQQHPGKAPKLMIFDVSNRPSGVSDRFSGSKSGNTASLTISGLQAEDEADYYCSSFTTSSTVVFGGGTKLTVLG
# B14: mAb11004 (antibody, V domains shown)
# VH: QVQLVESGGGVVQPGRSLRLSCVASGFTFSIYGMDWVRQAPGKGLEWVAVISYDGSNKYYADSVKGRFTISRDNSKNTLYLQMNSLRPEDTAVYYCAKDREAAADAFDIWGQGTMVTVSS
# VL: DIQMTQSPSSVSASVGDRVTITCRASQGISSWLAWYQQKPGKAPKLLIYAASSLHSGVPSRFSGSGSGTDFTLTISSLQPEDFATYYCQQANSFRLTFGGGTKVEIK
# B15: mAb10954 (antibody, V domains shown)
# VH: EVQLVESGGGLVQPGGSLRLSCAASGITVSSNYMSWVRQAPGKGLEWVSLIYSGGSTYYADSVKGRFTISRDNSKNTLYLQMNSLRVEDTAVYYCARDHGMAAAGYNYWGQGTLVTVSS
# VL: DIQMTQSPSSLSASVGDRVTITCQASQDINKYLNWYQQKPGKAPKLLIYDASNLETGVPSRFSGSGSGTDFTFTINSLQPEDFATYFCQQYDNLPPAFGQGTKVEIKR
# B16: mAb10935 (antibody, V domains shown)
# VH: EVQLVESGGGLVQPGGSLRLSCAASGFTVSSNYMSWVRQAPGKGLEWVSLIYSGGSTYYADSVKGRFTISRHNSKNTLYLQMNSLRSEDTAVYYCARVPLGDYYYGMDVWGQGTTVTVSS
# VL: B15 VL with N76S, F83I, F87Y, Y91S, P96L, A97T, Q100G
# B17: mAb10934 (antibody, V domains shown)
# VH: not shown
# VL: B15 VL with N30W, K31N, L33I, E55K, N76S, F83I, F87Y, Y91H, N93D, A97T
# B18: mAb10956 (antibody, V domains shown)
# VH: EVQLVESGGGLVQPGGSLRLSCAASGLTVSSNYMSWVRQAPGKGLEWVSVIYSGGSTFYADSVKGRFTISRDNSKNTLYLQMNSLRAEDTAVYYCARDLIKYGMDVWGQGTTVTVSS
# VL: not shown
# B19: mAb10957 (antibody, V domains shown)
# VH: B18 VH with L27V, Y79F, A87I, I100G, K101P
# VL: DIQLTQSPSFLSASVGDRVTITCRASQGISSYLAWYQQKPGKAPKLLIYAASTLQSGVPSRFSGSGSGTQFILTISSLQPEDFATYYCQQLNSYPGFTFGPGTKVDIKR
# B20: mAb10914 (antibody, V domains shown)
# VH: B18 VH with T28I, S31R, S35I, D72H, I100G, K101T, Y102G
# VL: DIQLTQSPSFLSASVGDRVTITCWASQGISSYLAWYQQKPGKAPKLLIYAASTLQSGVPSRFSGSGSGTEFTLTISSLQPEDFATYYCQQLNSYPLTFGGGTKVEIKR
# B21: mAb10939 (antibody, V domains shown)
# VH: B18 VH with S35N, A40V, T57K, A60V, D72H, A87P, A96T, L99A, I100Q, K101Y
# VL: DIQMTQSPSSLSASVGDRVTITCRASQSISTYLHWYQQKPGEAPKLLIYAASSLQSGVPSRFSGSGSGTDFTLTISSLQPEDFATYYCQQSYSTPPEIFGQGTKLEIKR
# B22: mAb10930 (antibody, V domains shown)
# VH: EVQLVESGGGLVQPGRSLRLSCAASGFTFDDYAMYWVRQAPGKGLEWVSGISWNSGSIGYADSVKGRFTISRDNAKNSLYLQMNSLRAADTALYYCAKDKDWNSRGYYYYGMDVWGQGTTVTVSS
# VL: not shown
# B23: mAb10955 (antibody, V domains shown)
# VH: EVQLVESGGGLVQPGGSLRVSCAASGFTVSRNYMSWVRQAPGKGLEWVSVIYSGGSTFYADSVKGRFTISRDNSKNTLYLQMNSLRAEDTAIYYCARYIPRFDPWGQGTLVTVSS
# VL: DIQMTQSPSSLSASVGDRVTITCQASQDISNYLNWFQQKPGRAPKLLIYDASNLETGVPSRFSGSGSGTDFTFTISSLQPEDIATYYCQQYDNLPITFGQGTRLEIKR
# B24: mAb10921 (antibody, V domains shown)
# VH: EVQLVESGGGLVQPGGSLRLSCAASGITVSSNYMSWVRQAPGKGLEWVSVIYSGGSTFYADSVKGRFTISRHNSKNTLYLQMNSLRAEDTAVYYCARERNFDAFDIWGQGTMVTVSS
# VL: B19 VL with L4M, F10S, L11V, Y32W, T53S, Q70D, I72T, L91A, Y94F, G96L
# B25: mAb11002 (antibody, V domains shown)
# VH: EVQLVESGGGLVQPGGSLRLSCAASGFTVSSNYMSWVRQAPGKGLEWVSVIYSGGSTFYADSVKGRFTISRHNSKNTLYLQMNSLRAEDTAVYYCAREGYGMDVWGQGTTVTVSS
# VL: not shown
# Experiments:
# [1] = molecular target: SARS-CoV-2 Spike Protein (S1 Subunit, His Tag) (Sino 40591-V08H) (SARS-CoV-2, UniProt P0DTC2 16-685); assay: Luminex, supernatant
# [2] = molecular target: SARS-CoV-2 Spike Protein (S1 Subunit, Fc Tag) (Sino 40591-V02H) (SARS-CoV-2, UniProt P0DTC2 16-685); assay: Luminex, supernatant
# [3] = molecular target: SARS-COV-2 RBD-mFc (SARS-CoV-2); assay: Luminex beads
Binder,MFI [1] [MFI],MFI [2] [MFI],binding result [3]
B1,14000,10800,
B2,19100,16000,
B3,,16200,
B4,24900,18900,
B5,,,binds
B6,26400,19600,
B7,,,binds
B8,,,binds
B9,22100,17600,
B10,,,binds
B11,,,binds
B12,,,binds
B13,14200,12300,
B14,,,binds
B15,,,binds
B16,25600,20000,
B17,27500,20600,
B18,,,binds
B19,,,binds
B20,,,binds
B21,23900,18200,
B22,21200,16500,
B23,,,binds
B24,12200,8960,
B25,,,binds
